Source: patent US20150284450A1 (AstraZeneca / MedImmune, published 2015)

Target: PcrV as expressed by live P. aeruginosa (strains 6077 and 6206) in the cytotoxicity and RBC lysis assays (Pseudomonas aeruginosa)
Test: cell-based or functional assay

B1: anti-PcrV monoclonal antibody V2L2 (antibody, V domains shown)
VH: EMQLLESGGGLVQPGGSLRLSCAASGFTFSSYAMNWVRQAPGEGLEWVSAITISGITAYYTDSVKGRFTISRDNSKNTLYLQMNSLRAGDTAVYYCAKEEFLPGTHYYYGMDVWGQGTTVTVSS
VL: AIQMTQSPSSLSASVGDRVTITCRASQGIRNDLGWYQQKPGKAPKLVIYSASTLQSGVPSRFSGSGSGTDFTLSISSLQPDDFATYYCLQDYNYPWTFGQGTKVEIK
Question: With B1 as the binder, how does the “inhibition of cytotoxicity (A549 lysis by P. aeruginosa 6077, LDH release), IC50” value read?
Answer: 0.1 mg/L

Question: And the “inhibition of cytotoxicity, IC50 relative to mAb166” value?
Answer: 28 fold lower

Question: What about the “prevention of RBC lysis (rabbit RBCs, P. aeruginosa 6077), IC50” value of the same binder?
Answer: 0.37 mg/L

Question: What about the “prevention of RBC lysis, IC50 relative to mAb166” value of the same binder?
Answer: 10 fold lower
